Patent publication US7951562B2, “Method for glycosylating hydroxylysine residues in polypeptides or peptides” (Oulun Yliopisto, priority 2000, dated 2011)
Several values for one entry are separate records, joined by “and”; a condition that tells them apart may be missing. Equal entries are not always repeated.

What was measured:
Assay type in all cases: biochemical
[1] = test system: galactosylhydroxylysyl residues in calf skin gelatin substrate; experiment: GGT (glucosyltransferase) activity of recombinant proteins expressed in Sf9 insect cells; details: Sf9 cells, 72 hours after infection
Source text: The glucosyltransferase activity can be assayed as described in Myllylä et al. (1975). The method is based on the transfer of radioactively (tritium) labelled glucose from UDP-glucose to galactosylhydroxylysyl residues in calf skin gelatin substrate and on the specific assay of the product of the enzyme reaction after alkaline hydrolysis.
Commercially available baculovirus transfer vector pFastBacI in the BAC-TO-BAC™ expression system (Life technologies, Inc.) was modified to contain human LH1 signal peptide (Hautala et al., 1992) and His6 tag, and BamHI restriction site for insertion of the desired cDNA, nucleotides 289-2455 of LH3 cDNA (SEQ ID NO 6) (Valtavaara et al., 1998). The construct was confirmed by sequencing. The recombinant protein contains His tag at the amino-terminus after signal peptide cleavage. Insect cells were harvested 0-72 hours after infection and homogenized according to the protocol described earlier (Valtavaara et al., 1997).
Human LH1 signal peptide and His6 tag was inserted to the cDNA constructs of LH1 and LH2. The baculovirus transfer vector pFastBacI was modified so that human LH1 signal sequence followed by nine nucleotides of the amino-terminal end was ligated to the His6 tag followed by nucleotides for BamHI restriction site. The human cDNA sequence (LH1 or LH2) (SEQ ID NO 21, 23 and 25) starting from the likely amino-terminal end of the molecule was ligated to the BamHI site of the construct. Two expression constructs were generated for LH2, LH2a and LH2b (SEQ ID NO 23 and 25), both of them covered the nucleotides from 76 to 2267 (Valtavaara et al., 1997). The LH2b construct contained also the alternatively spliced exon sequence (Valtavaara 1999; Yeowell and Walker, 1999) between nucleotides 1500 and 1501 (SEQ ID NO 25). The constructs were confirmed by sequencing. Insect cells were grown and homogenized as described above.
LH activity was assayed by a method based on the hydroxylation-coupled decarboxylation of 2-oxo(1-^14C)glutarate (Kivirikko and Myllylä 1982), synthetic peptide […] was used as a substrate. GGT activity was assayed as described elsewhere (Myllylä et al. 1975). The method is based on the transfer of radioactively (tritium) labelled glucose from UDP-glucose to galactosylhydroxylysyl residues in calf skin gelatin substrate and on the specific assay of the product of the enzyme reaction after alkaline hydrolysis.

[2] = test system: hydroxylysyl residues in a calf skin gelatin substrate; experiment: GT (galactosyltransferase) activity of recombinant proteins expressed in E. coli; details: E. coli cell supernatant, FIG. 12
Source text: The galactosyltransferase activity can be assayed as described in Myllylä et al. (1975). The method is based on the transfer of radioactively (tritium) labelled galactose from UDP-galactose to hydroxylysyl residues in calf skin gelatin substrate and on the specific assay of the product of the enzyme reaction after alkaline hydrolysis.

[3] = test system: hydroxylysyl residues in a calf skin gelatin substrate; experiment: GT activity of recombinant proteins expressed with baculovirus vector in Sf9 cells; details: baculovirus vector in insect cells, not shown
Method: Baculovirus transfer vector pFastBacI in the BAC-TO-BAC™ expression system was used to produce LH3 protein in Sf9 cells. The cDNA construct is in Example 1. The recombinant protein contains the His tag at the amino terminus after signal peptide cleavage. The cells were homogenized as described elsewhere (Valtavaara et al. 1997).
GT and GGT activities were measured by a method based on the transfer of radioactively (tritium)-labeled sugar from UDP-sugar to hydroxylysyl or galactosylhydroxylysyl residues in a calf skin gelatin substrate, respectively (Myllylä et al. 1975). The specific detection of the reaction products was performed after alkaline hydrolysis.

[4] = test system: synthetic peptide IKGIKGIKG; experiment: LH activity of human LH isoforms expressed in E. coli; details: E. coli expression system, data not shown
Source text: The lysyl hydroxylase activity can be assayed by a method based on the hydroxylation-coupled decarboxylation of 2-oxo(1-^14C)glutarate (Kivirikko and Myllylä 1982), synthetic peptide […] was used as a substrate.
PFastBacI constructs for human LH1, LH2a, LH2b and LH3 were cleaved with BamHI and Hind III restriction enzymes and coding regions were subcloned into same site in E. coli expression vector pQE30 containing (His)6 tag at the amino terminus. Insert for C. elegans LH (corresponding to amino acids 14-730 in cDNA) was generated by PCR and ligated into SacI-PstI site of pOE30 vector. Constructs were transformed into E. coli XL1-Blue strain. Cultures were grown to OD600 of 0.6 at 37° C. Protein expression was induced by adding 1 mM IPTG and incubation was proceed at 30° C. for 5 hours. Cells were harvested and stored at −20° C. For activity measurements cell pellet was suspended to lysis buffer (0.4 M NaCl, 0.5% Nonident and 20 mM Tris-HCl pH 7.8, at 20° C.) and incubated in the presence of lysozyme (50 μg/ml), DNAase (10 μg/ml) and RNAase (10 μg g/ml) at room temperature for 30 minutes. Lysis was completed by sonication. Cell debris was pelleted and supernatant was used in the measurements.

[5] = test system: galactosylhydroxylysyl residues in a calf skin gelatin substrate; experiment: GGT activity of recombinant proteins expressed in E. coli; details: E. coli supernatant, 5 h IPTG induction, stored at −70° C. overnight; listed as LH cDNA

Molecule | GGT activity in cell lysates [1] | generation of GT activity [2] | generation of GT activity [3] | LH activity [4] | GGT enzyme activity [5]
LH2b: recombinant human lysyl hydroxylase isoform 2, alternatively spliced form b (protein, listed as Homo sapiens, His6 tag; CDS (1)..(2277), recombinant human lysyl hydroxylase isoform 2, alternatively spliced form b) MGGCTVKPQLLLLALVLHPWNPCLGADSEKPSSIPTDKLLVITVATKESDGFHRFMQSAKYFNYTVKVLGQGEEWRGGDGINSIGGGQKVRLMKEVMEHYADQDDLVVMFTECFDVIFAGGPEEVLKKFQKANHKVVFAADGILWPDKRLADKYPVVHIGKRYLNSGGFIGYAPYVNRIVQQWNLQDNDDDQLFYTKVYIDPLKREAINITLDHKCKIFQTLNGAVDEVVLKFENGKARAKNTFYETLPVAINGNGPTKILLNYFGNYVPNSWTQDNGCTLCEFDTVDLSAVDVHPNVSIGVFIEQPTPFLPRFLDILLTLDYPKEALKLFIHNKEVYHEKDIKVFFDKAKHEIKTIKIVGPEENLSQAEARNMGMDFCRQDEKCDYYFSVDADVVLTNPRTLKILIEQNRKIIAPLVTRHGKLWSNFWGALSPDGYYARSEDYVDIVQGNRVGVWNVPYMANVYLIKGKTLRSEMNERNYFVRDKLDPDMALCRNAREMTLQREKDSPTPETFQMLSPPKGVFMYISNRHEFGRLLSTANYNTSHYNNDLWQIFENPVDWKEKYINRDYSKIFTENIVEQPCPDVFWFPIFSEKACDELVEEMEHYGKWSGGKHHDSRISGGYENVPTDDIHMKQVDLENVWLDFIREFIAPVTLKVFAGYYTKGFALLNFVVKYSPERQRSLRPHHDASTFTINIALNNVGEDFQGGGCKFLRYNCSIESPRKGWSFMHPGRLTHLHEGLPVKNGTRYIAVSFIDP | none of these recombinant proteins had detectable GGT activity | LH3 was the only one being able to generate GT activity | did not generated GT activity | no LH activity can be found | 
C. elegans LH: protein produced from Caenorhabditis elegans lysyl hydroxylase cDNA (amino acids 14-730) (protein, Caenorhabditis elegans) LLATTITDLPELVVVTVATENTDGLKRLLESAKAFDINIEVLGLGEKWNGGDTRIEQGGGQKIRILSDWIEKYKDASDTMIMFVDAYDVVFNADSTTILRKFFEHYSEKRLLFGAEPFCWPDQSLAPEYPIVEFGKRFLNSGLFMGYGPEMHKILKLKSVEDKDDDQLYYTMIYLDEKLRKELNMDLDSMSKIFQNLNGVIEDVELQFKEDGTPEAYNAAYNTKPLIVHGNGPSKSHLNYLGNYLGNRWNSQLGCRTCGLEVKESEEVPLIALNLFISKPIPFIEEVLQKIAEFDYPKEKIALYIYNNQPFSIKNIQDFLQKHGKSYYTKRVINGVTEIGDREARNEAIEWNKARNVEFAFLMDGDAYFSEPKVIKDLIQYSKTYDVGIIAPMIGQPGKLFTNFWGAIAANGYYARSEDYMAIVKGNRVGYWNVPFITSAVLFNKEKLEAMKDAYSYNKNLDPDMSMCKFARDNGHFLYIDNEKYYGFLIVSDEYAETVTEGKWHPEMWQIFENRELWEARYIHPGYHKIMEPEHVVDQACPDVYDFPLMSERFCEELIEEMEGFGRWSDGSNNDKRLAGGYENVPTRDIHMNQVGFERQWLYFMDTYVRPVQEKTFIGYYHQPVESNMMFVVRYKPEEQPSLRPHHDASTFSIDIALNKKGRDYEGGGVRYIRYNCTVPADEVGYAMMFPGRLTHLHEGLATTKGTRYIMVSFINP |  |  |  |  | 30.700 dpm/mg soluble protein and 21.000 dpm/mg soluble protein
